Reference: patent US20190077860A1 (EISAI R AND D MANAGEMENT, published 2019)

T1: human EphB1 extracellular region-SEAP-His protein (human, UniProt P54762 18-540)
T1 construct: extracellular domain; also called hEphB1-SEAP-His
T1 sequence (looked up): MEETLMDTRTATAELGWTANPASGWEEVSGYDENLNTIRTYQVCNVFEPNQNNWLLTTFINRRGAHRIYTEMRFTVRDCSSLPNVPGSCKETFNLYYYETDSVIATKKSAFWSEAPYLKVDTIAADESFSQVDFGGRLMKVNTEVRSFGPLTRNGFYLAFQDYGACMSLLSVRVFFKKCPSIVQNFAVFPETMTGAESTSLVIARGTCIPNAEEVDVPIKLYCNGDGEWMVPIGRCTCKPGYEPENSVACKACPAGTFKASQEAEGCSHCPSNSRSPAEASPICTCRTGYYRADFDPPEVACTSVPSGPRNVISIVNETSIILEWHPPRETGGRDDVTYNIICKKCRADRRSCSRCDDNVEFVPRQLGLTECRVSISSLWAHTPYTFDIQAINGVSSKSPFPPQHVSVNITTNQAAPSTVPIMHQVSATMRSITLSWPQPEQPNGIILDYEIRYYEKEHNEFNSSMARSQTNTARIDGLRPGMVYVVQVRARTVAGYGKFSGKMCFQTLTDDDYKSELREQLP

T2: human EphA6 extracellular region-SEAP-His protein (human, UniProt Q9UF33 23-550)
T2 construct: extracellular domain; also called hEphA6-SEAP-His
T2 sequence (looked up): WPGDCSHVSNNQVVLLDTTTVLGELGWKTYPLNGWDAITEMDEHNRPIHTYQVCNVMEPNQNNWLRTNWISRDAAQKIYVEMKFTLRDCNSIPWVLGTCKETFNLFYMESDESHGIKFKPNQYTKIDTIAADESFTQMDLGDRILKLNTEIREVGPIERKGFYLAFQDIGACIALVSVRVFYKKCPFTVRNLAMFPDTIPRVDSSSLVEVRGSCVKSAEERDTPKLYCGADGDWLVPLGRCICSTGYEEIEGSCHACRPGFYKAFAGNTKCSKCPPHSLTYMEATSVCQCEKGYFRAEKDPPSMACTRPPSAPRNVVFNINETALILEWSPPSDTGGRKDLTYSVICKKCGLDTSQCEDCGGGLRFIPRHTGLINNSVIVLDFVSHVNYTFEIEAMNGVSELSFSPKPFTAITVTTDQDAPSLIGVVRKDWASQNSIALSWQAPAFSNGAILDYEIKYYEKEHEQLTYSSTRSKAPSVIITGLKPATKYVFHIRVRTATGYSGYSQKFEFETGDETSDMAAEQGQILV

T3: human EphB2 extracellular region-SEAP-His protein (human, UniProt P29323 19-543)
T3 construct: extracellular domain; also called hEphB2-SEAP-His
T3 sequence (looked up): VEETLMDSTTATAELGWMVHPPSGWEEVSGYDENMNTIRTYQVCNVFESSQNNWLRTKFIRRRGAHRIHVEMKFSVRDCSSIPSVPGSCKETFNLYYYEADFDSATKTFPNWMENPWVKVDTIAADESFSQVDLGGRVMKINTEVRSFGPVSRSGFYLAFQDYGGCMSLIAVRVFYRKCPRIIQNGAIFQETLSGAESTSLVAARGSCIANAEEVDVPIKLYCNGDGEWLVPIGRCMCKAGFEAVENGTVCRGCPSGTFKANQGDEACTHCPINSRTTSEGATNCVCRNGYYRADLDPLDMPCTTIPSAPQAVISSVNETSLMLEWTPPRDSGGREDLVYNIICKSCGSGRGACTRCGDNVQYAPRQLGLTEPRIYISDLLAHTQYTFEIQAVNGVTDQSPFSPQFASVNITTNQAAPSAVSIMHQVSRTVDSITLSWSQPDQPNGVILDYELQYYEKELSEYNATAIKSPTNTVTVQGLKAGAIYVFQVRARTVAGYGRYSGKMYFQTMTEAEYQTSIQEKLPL

T4: human EphA7 extracellular region-SEAP-His protein (human, UniProt Q15375 28-555)
T4 construct: extracellular domain; also called hEphA7-SEAP-His
T4 sequence (looked up): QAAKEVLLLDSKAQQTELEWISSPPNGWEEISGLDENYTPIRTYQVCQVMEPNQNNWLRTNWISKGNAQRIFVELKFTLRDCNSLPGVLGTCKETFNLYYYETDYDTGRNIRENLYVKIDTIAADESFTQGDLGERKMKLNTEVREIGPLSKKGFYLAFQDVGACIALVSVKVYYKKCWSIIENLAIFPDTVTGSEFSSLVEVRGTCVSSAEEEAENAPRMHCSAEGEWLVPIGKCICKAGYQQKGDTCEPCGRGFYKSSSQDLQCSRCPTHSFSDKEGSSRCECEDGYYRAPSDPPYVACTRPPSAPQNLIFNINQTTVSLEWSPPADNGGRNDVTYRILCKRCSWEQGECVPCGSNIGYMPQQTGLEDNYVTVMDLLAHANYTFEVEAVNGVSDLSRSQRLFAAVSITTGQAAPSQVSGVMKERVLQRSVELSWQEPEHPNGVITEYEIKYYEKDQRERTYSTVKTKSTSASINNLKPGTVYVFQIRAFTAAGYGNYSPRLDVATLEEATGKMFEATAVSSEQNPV


Experiments:
Experiment in all cases: ELISA
[1] = molecular target: T1, human EphB1 extracellular …
[2] = molecular target: T2, human EphA6 extracellular …
[3] = molecular target: T3, human EphB2 extracellular …
[4] = molecular target: T4, human EphA7 extracellular …

| Binder | A450 as % of hEphA4-SEAP-His [1] [%] | A450 as % of hEphA4-SEAP-His [2] [%] | A450 as % of hEphA4-SEAP-His [3] [%] | A450 as % of hEphA4-SEAP-His [4] [%] |
| --- | --- | --- | --- | --- |
| humanized antibody No. 76 (antibody, human IgG1, kappa, human Ig kappa; also called L1-4/HA2) heavy: QVQLVQSGSELKKPGASVKVSCKASGYTFTDYSMHWVRQAPGQGLKWMGWINTETGEPTYAQGFTGRFVFSLDTSVSTAYLQISSLKAEDTAVYYCARIPLYYYGSRYWYFDVWGQGTTVTVSSASTKGPSVFPLAPSSKSTSGGTAALGCLVKDYFPEPVTVSWNSGALTSGVHTFPAVLQSSGLYSLSSVVTVPSSSLGTQTYICNVNHKPSNTKVDKRVEPKSCDKTHTCPPCPAPPAAAPSVFLFPPKPKDTLMISRTPEVTCVVVDVSHEDPEVQFNWYVDGVEVHNAKTKPREEQFNSTFRVVSVLTVVHQDWLNGKEYKCKVSNKGLPAPIEKTISKTKGQPREPQVYTLPPSREEMTKNQVSLTCLVKGFYPSDIAVEWESNGQPENNYKTTPPMLDSDGSFFLYSKLTVDKSRWQQGNVFSCSVMHEALHNHYTQKSLSLSPG light: DIQMTQSPSSLSASVGDRVTITCRASENIYRNLAWYQQKPGKAPKLLVYAATNLADGVPSRFSGSGSGTDYTLTISSLQPEDFATYYCQHFWGTPWTFGQGTKVEIKRTVAAPSVFIFPPSDEQLKSGTASVVCLLNNFYPREAKVQWKVDNALQSGNSQESVTEQDSKDSTYSLSSTLTLSKADYEKHKVYACEVTHQGLSSPVTKSFNRGEC | 4.9 | 7.9 | 4.9 | 4.8 |
| humanized antibody No. 75 (antibody, human IgG1, kappa, constant region: human IgG1 CH1 and hinge, human IgG2 CH2 and CH3 with V234A, G237A, no C-terminal Lys; human Ig kappa; also called L1-4/HA1) heavy: QVQLVQSGSELKKPGASVKVSCKASGYTFTDYSMHWVRQAPGQGLEWMGWINTETGEPTYAQGFTGRFVFSLDTSVSTAYLQISSLKAEDTAVYYCARIPLYYYGSRYWYFDVWGQGTTVTVSSASTKGPSVFPLAPSSKSTSGGTAALGCLVKDYFPEPVTVSWNSGALTSGVHTFPAVLQSSGLYSLSSVVTVPSSSLGTQTYICNVNHKPSNTKVDKRVEPKSCDKTHTCPPCPAPPAAAPSVFLFPPKPKDTLMISRTPEVTCVVVDVSHEDPEVQFNWYVDGVEVHNAKTKPREEQFNSTFRVVSVLTVVHQDWLNGKEYKCKVSNKGLPAPIEKTISKTKGQPREPQVYTLPPSREEMTKNQVSLTCLVKGFYPSDIAVEWESNGQPENNYKTTPPMLDSDGSFFLYSKLTVDKSRWQQGNVFSCSVMHEALHNHYTQKSLSLSPG light: DIQMTQSPSSLSASVGDRVTITCRASENIYRNLAWYQQKPGKAPKLLVYAATNLADGVPSRFSGSGSGTDYTLTISSLQPEDFATYYCQHFWGTPWTFGQGTKVEIKRTVAAPSVFIFPPSDEQLKSGTASVVCLLNNFYPREAKVQWKVDNALQSGNSQESVTEQDSKDSTYSLSSTLTLSKADYEKHKVYACEVTHQGLSSPVTKSFNRGEC | 4.4 | 8.3 | 4.5 | 4.7 |
| humanized antibody No. 77 (antibody, human IgG1, kappa, human Ig kappa; also called L1-4/HK1) heavy: QVQLVQSGSELKKPGASVKVSCKASGYTFTDYSMHWVRQAPGQGLEWMGWINTETGEPTYADDFKGRFVFSLDTSVSTAYLQISSLKAEDTAVYYCARIPLYYYGSRYWYFDVWGQGTTVTVSSASTKGPSVFPLAPSSKSTSGGTAALGCLVKDYFPEPVTVSWNSGALTSGVHTFPAVLQSSGLYSLSSVVTVPSSSLGTQTYICNVNHKPSNTKVDKRVEPKSCDKTHTCPPCPAPPAAAPSVFLFPPKPKDTLMISRTPEVTCVVVDVSHEDPEVQFNWYVDGVEVHNAKTKPREEQFNSTFRVVSVLTVVHQDWLNGKEYKCKVSNKGLPAPIEKTISKTKGQPREPQVYTLPPSREEMTKNQVSLTCLVKGFYPSDIAVEWESNGQPENNYKTTPPMLDSDGSFFLYSKLTVDKSRWQQGNVFSCSVMHEALHNHYTQKSLSLSPG light: DIQMTQSPSSLSASVGDRVTITCRASENIYRNLAWYQQKPGKAPKLLVYAATNLADGVPSRFSGSGSGTDYTLTISSLQPEDFATYYCQHFWGTPWTFGQGTKVEIKRTVAAPSVFIFPPSDEQLKSGTASVVCLLNNFYPREAKVQWKVDNALQSGNSQESVTEQDSKDSTYSLSSTLTLSKADYEKHKVYACEVTHQGLSSPVTKSFNRGEC | 4.6 | 6 | 4.5 | 4.3 |
| humanized antibody No. 69 (antibody, human IgG1, kappa, human Ig kappa; also called L1-4/HK4) heavy: QIQLVQSGSELKKPGASVKVSCKASGYTFTDYSMHWVRQAPGQGLKWMGWINTETGEPTYADDFKGRFVFSLDTSVSTAYLQISSLKAEDTAVYYCARIPLYYYGSRYWYFDVWGQGTTVTVSSASTKGPSVFPLAPSSKSTSGGTAALGCLVKDYFPEPVTVSWNSGALTSGVHTFPAVLQSSGLYSLSSVVTVPSSSLGTQTYICNVNHKPSNTKVDKRVEPKSCDKTHTCPPCPAPPAAAPSVFLFPPKPKDTLMISRTPEVTCVVVDVSHEDPEVQFNWYVDGVEVHNAKTKPREEQFNSTFRVVSVLTVVHQDWLNGKEYKCKVSNKGLPAPIEKTISKTKGQPREPQVYTLPPSREEMTKNQVSLTCLVKGFYPSDIAVEWESNGQPENNYKTTPPMLDSDGSFFLYSKLTVDKSRWQQGNVFSCSVMHEALHNHYTQKSLSLSPG light: DIQMTQSPSSLSASVGDRVTITCRASENIYRNLAWYQQKPGKAPKLLVYAATNLADGVPSRFSGSGSGTDYTLTISSLQPEDFATYYCQHFWGTPWTFGQGTKVEIKRTVAAPSVFIFPPSDEQLKSGTASVVCLLNNFYPREAKVQWKVDNALQSGNSQESVTEQDSKDSTYSLSSTLTLSKADYEKHKVYACEVTHQGLSSPVTKSFNRGEC | 5.6 | 9.5 | 5.5 | 5.3 |
| humanized antibody No. 67 (antibody, human IgG1, kappa, human Ig kappa; also called L1-4/HA4) heavy: QIQLVQSGSELKKPGASVKVSCKASGYTFTDYSMHWVRQAPGQGLKWMGWINTETGEPTYAQGFTGRFVFSLDTSVSTAYLQISSLKAEDTAVYYCARIPLYYYGSRYWYFDVWGQGTTVTVSSASTKGPSVFPLAPSSKSTSGGTAALGCLVKDYFPEPVTVSWNSGALTSGVHTFPAVLQSSGLYSLSSVVTVPSSSLGTQTYICNVNHKPSNTKVDKRVEPKSCDKTHTCPPCPAPPAAAPSVFLFPPKPKDTLMISRTPEVTCVVVDVSHEDPEVQFNWYVDGVEVHNAKTKPREEQFNSTFRVVSVLTVVHQDWLNGKEYKCKVSNKGLPAPIEKTISKTKGQPREPQVYTLPPSREEMTKNQVSLTCLVKGFYPSDIAVEWESNGQPENNYKTTPPMLDSDGSFFLYSKLTVDKSRWQQGNVFSCSVMHEALHNHYTQKSLSLSPG light: DIQMTQSPSSLSASVGDRVTITCRASENIYRNLAWYQQKPGKAPKLLVYAATNLADGVPSRFSGSGSGTDYTLTISSLQPEDFATYYCQHFWGTPWTFGQGTKVEIKRTVAAPSVFIFPPSDEQLKSGTASVVCLLNNFYPREAKVQWKVDNALQSGNSQESVTEQDSKDSTYSLSSTLTLSKADYEKHKVYACEVTHQGLSSPVTKSFNRGEC | 4.6 | 7.3 | 4.7 | 4.7 |
